Laboratory results from patent publication US20180282425A1.
Where two headings read alike, the source gives them in different places. Blank lines part the entries; values can stand above or below the substance they belong to.

Experiments:
[1] = molecular target: C5a receptor C5aR (CD88) on human blood neutrophils (human) (UniProt P21730); experiment: cell-based or functional assay
[2] = molecular target: C5a receptor C5aR (CD88) on human blood neutrophils (human) (UniProt P21730); experiment: cell-based or functional assay; remark: listed apart in the source

Chain of C5a receptor C5aR (CD88) on human blood neutrophils (human) (P21730 whole entry): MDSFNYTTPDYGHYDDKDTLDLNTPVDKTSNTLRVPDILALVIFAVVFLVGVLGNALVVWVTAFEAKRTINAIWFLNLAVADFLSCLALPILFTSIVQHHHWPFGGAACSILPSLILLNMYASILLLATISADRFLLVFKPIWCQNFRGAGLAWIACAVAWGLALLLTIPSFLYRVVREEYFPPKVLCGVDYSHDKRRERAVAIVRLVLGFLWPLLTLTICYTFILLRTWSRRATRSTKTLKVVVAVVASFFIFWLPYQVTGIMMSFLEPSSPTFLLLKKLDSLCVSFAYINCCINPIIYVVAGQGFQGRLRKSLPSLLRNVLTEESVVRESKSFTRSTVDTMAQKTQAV

Blocking activity (%) on CD11b upregulation; Pat. 088|PMX 53 (20 µM) [1]: 104%
Blocking activity (%) on CD11b upregulation; Pat. 092|PMX 53 (20 µM) [1]: 109%
Blocking activity (%) on CD11b upregulation; huPP|rhC5a|PMX 53 (20 µM) [1]: 108%
CD11b (mean MFI); Pat. 088|PMX 53 (20 µM) [1]: 2030 MFI
CD11b (mean MFI); Pat. 092|PMX 53 (20 µM) [1]: 1910 MFI
CD11b (mean MFI); huPP|rhC5a|PMX 53 (20 µM) [1]: 1850 MFI
Blocking activity (%) on CD11b upregulation; Pat. 088|PMX 53 (50 nM) [2]: 55.5%
Blocking activity (%) on CD11b upregulation; Pat. 092|PMX 53 (50 nM) [2]: 56.7%
Blocking activity (%) on CD11b upregulation; huPP|rhC5a|PMX 53 (50 nM) [2]: 50.3%
CD11b (mean MFI); Pat. 088|PMX 53 (50 nM) [2]: 4730 MFI
CD11b (mean MFI); Pat. 092|PMX 53 (50 nM) [2]: 4660 MFI
CD11b (mean MFI); huPP|rhC5a|PMX 53 (50 nM) [2]: 4240 MFI
Substance: PMX-53 (peptide)

Blocking activity (%) on CD11b upregulation; Pat. 088|Clone 7H110 (50 nM) [2]: 75.7%
Blocking activity (%) on CD11b upregulation; Pat. 092|Clone 7H110 (50 nM) [2]: 78.7%
Blocking activity (%) on CD11b upregulation; huPP|rhC5a|Clone 7H110 (50 nM) [2]: 70.7%
CD11b (mean MFI); Pat. 088|Clone 7H110 (50 nM) [2]: 3560 MFI
CD11b (mean MFI); Pat. 092|Clone 7H110 (50 nM) [2]: 3390 MFI
CD11b (mean MFI); huPP|rhC5a|Clone 7H110 (50 nM) [2]: 3380 MFI
Substance: anti-C5aR (CD88) antibody Clone 7H110

CD11b (mean MFI) on blood neutrophils; huPP|rhC5a (20 nM), no blocker [1]: 8330 MFI
CD11b (mean MFI) on blood neutrophils; huPP|rhC5a (20 nM), no blocker [2]: 6330 MFI
Substance: recombinant human C5a (from UniProt P01031 678-751) (ligand)

Blocking activity (%) on CD11b upregulation; Pat. 088|Clone S5/1 (50 nM) [2]: 72.7%
Blocking activity (%) on CD11b upregulation; Pat. 092|Clone S5/1 (50 nM) [2]: 75.9%
Blocking activity (%) on CD11b upregulation; huPP|rhC5a|Clone S5/1 (50 nM) [2]: 73%
CD11b (mean MFI); Pat. 088|Clone S5/1 (50 nM) [2]: 3740 MFI
CD11b (mean MFI); Pat. 092|Clone S5/1 (50 nM) [2]: 3560 MFI
CD11b (mean MFI); huPP|rhC5a|Clone S5/1 (50 nM) [2]: 3290 MFI
Substance: anti-C5aR (CD88) antibody Clone S5/1
